Measurements taken from US20240350646A1, “METHODS AND COMPOSITIONS FOR DELIVERY TO AND ACROSS THE BLOOD BRAIN BARRIER” (NUtech Ventures, priority 2021, published 2024).
Values belong to the molecule of their own block, whether it stands above or below them.

Assays:
human claudin-9 = target: T1, human claudin-9 (Homo sapiens, UniProt O95484); test: Microscale thermophoresis (MST) binding; conditions: 0.1% beta-UDM buffer
T1 sequence (O95484 1-217): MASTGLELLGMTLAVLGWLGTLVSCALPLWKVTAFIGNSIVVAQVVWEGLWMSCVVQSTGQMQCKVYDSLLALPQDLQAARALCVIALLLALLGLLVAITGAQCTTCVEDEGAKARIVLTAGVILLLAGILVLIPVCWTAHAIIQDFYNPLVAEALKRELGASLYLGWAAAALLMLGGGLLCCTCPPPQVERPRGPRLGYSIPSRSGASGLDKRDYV
Method: (§1) Human claudin-1 was expressed and purified as reported previously (Vecchio & Stroud, 2019, PNAS USA, 116:17817-24). MST measurements were performed using a Monolith instrument (NanoTemper Technologies). For experiments with human claudin-1, the assay buffer contained 10 mM Tris HCl, pH 8.0, 100 mM NaCl, 4% glycerol, and 0.04% n-Dodecyl-β-D-Maltopyranoside (β-DDM). NPs and peptides were labeled with AF647 prior to MST analysis as described above. For the binding experiments, the concentration of human claudin-1 was varied from 2.2-73,500 nM and the AF647-labeled C1C2-NP was fixed at 70 nM, while the AF647 labeled NPs and AF647 labeled C1C2 peptide were fixed at 1 and 0.3 μM, respectively. Binding of the AF647 labeled C1C2-NP to human claudin-3, -4, and -9 were tested using 0.4-14000 nM, 0.8-28000 nM, and 0.6-20000 nM, respectively; with the AF647 labeled C1C2-NP fixed at 70 nM. This assay buffer was similar, except β-DDM was replaced with 0.1% n-Undecyl-β-D-Maltopyranoside (beta-UDM). In order to check non-specific binding of β-DDM micelles to the AF647 labeled C1C2-NP, the concentration of beta-DDM was varied from 0.03-900 μM and the concentration of the AF647-labeled C1C2-NP was fixed at 1 μM. A similar experiment was performed wherein the concentration of beta-UDM was varied from 0.3-10,000 μM and the concentration of AF647-labeled control NP was fixed at 1 μM. The non-specific binding of human claudins 4 and 9 to the NP was examined by varying the concentrations of human claudins 4 and 9 from 0.7-20,100 nM and 0.8-31,100 nM, respectively. The human claudin sub-dilutions were mixed with the NPs or peptides and loaded in standard monolith NT.115 capillary tubes for measurement. All experiments were conducted at 23° C. using the nano-red channel of the Monolith instrument and the data were analyzed by using either Monolith analysis software or Graph Pad Prism, version 9 (Graph Pad Software, San Diego, California).

human claudin-4 [1] = target: T2, human claudin-4 (Homo sapiens, UniProt O14493); test: Microscale thermophoresis (MST) binding; conditions: 0.1% beta-UDM buffer
T2 sequence (O14493 1-209): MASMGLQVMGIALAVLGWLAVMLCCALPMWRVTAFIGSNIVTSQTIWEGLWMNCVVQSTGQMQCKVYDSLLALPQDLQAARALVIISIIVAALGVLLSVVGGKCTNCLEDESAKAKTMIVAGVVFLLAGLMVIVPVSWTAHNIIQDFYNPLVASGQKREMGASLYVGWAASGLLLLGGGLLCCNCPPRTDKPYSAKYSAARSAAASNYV
Method: as §1

[2] = NP characterization: TEM particle diameter, DLS hydrodynamic size, zeta potential; type: physicochemical
Method: A high voltage transmission electron microscope (TEM) (Tecnai Osiris™, 200 kV) was used to measure particle diameters of PEG diacid coated Gd NPs. A copper grid (PELCO mesh size 400, TED PELLA, INC.) covered with an amorphous carbon membrane was placed onto a filter paper. Then, a sample solution diluted in triply distilled water was dropped over the copper grid by using a micropipette (Eppendorf, 2-20 μL). Dynamic light scattering (DLS) studies of the NPs were conducted using a Malvern Instruments Zetasizer Nano series instrument. Solutions of the NPs were prepared in DPBS (pH 7.4) at a concentration of 0.05 mM. The resulting solutions were filtered with 0.22 μm filters before the measurement. The NP concentration was determined by using an inductively coupled plasma mass spectrometer (ICPMS) (Agilent 7500 cx). To determine this, ˜0.5 mL of the NP solution was taken out and treated with HNO3 to dissolve nanoparticles in the solution completely. A Fourier transform-infrared (FT-IR) (Nicolet AVATAR 380 FT-IR) was used to verify the surface coating. To record the FT-IR absorption spectrum (400-4000 cm^−1), the powder sample was prepared. Peptide attachment to NPs was confirmed using BCA assay. Attaching efficiency was confirmed using the equation, Conjugation Efficiency of peptide (%)=Amount of peptide in NPs/Initial amount of peptide×100.

human claudin-4 [3] = target: T3, human claudin-4 (human, UniProt O14493 1-209, limits assumed); test: MST, sigmoidal dose-response fit (GraphPad Prism) of the FIG. 10A data; confidence interval undefined [panel B]
T3 sequence (looked up): T2 sequence (O14493 1-209)
Method: (§2) FIG. 10A is a graph showing binding of human claudins 3, 4 and 9 to C1C2-NPs using microscale thermophoresis. […] FIG. 10C is a graph showing the binding of human claudins 4 and 9 to control NPs monitored using microscale thermophoresis. […] Data fitting for human claudins 3, 4 and 9 were performed using Graph Pad Prism.
(§3) Human claudin-1 was expressed and purified as reported previously (Vecchio & Stroud, 2019, PNAS USA, 116:17817-24). MST measurements were performed using a Monolith instrument (NanoTemper Technologies). For experiments with human claudin-1, the assay buffer contained 10 mM Tris HCl, pH 8.0, 100 mM NaCl, 4% glycerol, and 0.04% n-Dodecyl-β-D-Maltopyranoside (β-DDM). NPs and peptides were labeled with AF647 prior to MST analysis as described above. For the binding experiments, the concentration of human claudin-1 was varied from 2.2-73,500 nM and the AF647-labeled C1C2-NP was fixed at 70 nM, while the AF647 labeled NPs and AF647 labeled C1C2 peptide were fixed at 1 and 0.3 μM, respectively. Binding of the AF647 labeled C1C2-NP to human claudin-3, -4, and -9 were tested using 0.4-14000 nM, 0.8-28000 nM, and 0.6-20000 nM, respectively; with the AF647 labeled C1C2-NP fixed at 70 nM. This assay buffer was similar, except β-DDM was replaced with 0.1% n-Undecyl-β-D-Maltopyranoside (beta-UDM).

human claudin-4 [4] = target: T3, human claudin-4; test: MST, sigmoidal dose-response fit (GraphPad Prism) of the FIG. 10A data, M is the unit of the concentration axis of panel A; confidence interval undefined [panel B]
Method: as §2, §3

Binding to human claudin 9 (in words) (human claudin-9; listed as AF647-C1C2-NP): weak
Binding to human claudin 9 (in words) (human claudin-9; listed as C1C2-NPs): the data did not fit
Binding to human claudin 4 (in words) (human claudin-4 [1]; listed as AF647-C1C2-NP): weak
Binding to human claudin 4 (in words) (human claudin-4 [1]; listed as C1C2-NPs): undefined 95% confidence intervals
Molecule: C1C2-NP: PEG diacid coated ultrasmall Gd NP conjugated with C1C2 peptide SSVSQSTGQIQSKVDSLLNLNSTQATR (SEQ ID NO: 6); claudin-1 targeted (Ac-SSVSQSTGQIQSKVDSLLNLNSTQATR-NH2; also: conjugated to PEG diacid coated ultrasmall Gd nanoparticle)
Zeta Potential, mV (with NPs) [2]: 7.81 ± 0.38 mV
Hydrodynamic size (nm) ([2]; DLS, DPBS pH 7.4): 14.5 ± 0.13 nm

LogEC50 (human claudin-4 [3]): -4.7
EC50 (human claudin-4 [4]): 20.1 µM
B1: C1C2-NP (C1C2 peptide conjugated to PEG diacid coated ultrasmall Gd nanoparticles) (peptide)
peptide: Ac-SSVSQSTGQIQSKVDSLLNLNSTQATR-NH2
modifications: not fully specified; also: conjugated by EDC-NHS chemistry to PEG diacid on Gd oxide nanoparticle surface (19 peptides per 3.5 nm particle)
notes: The protein part is the C1C2 peptide; the core is not a protein; also called C1C2-NPs; C1C2 NPs
